From publication doi:10.1101/2020.06.01.127969

Target: RNA polymerase II with SNAP-tagged Rpb1 labelled with SNAP-Surface 549 (Rpb1^SNAP549) (S. cerevisiae) (UniProt P04050)
Assay: CoSMoS

UniProt P04050, sequence (P04050 whole entry, looked up): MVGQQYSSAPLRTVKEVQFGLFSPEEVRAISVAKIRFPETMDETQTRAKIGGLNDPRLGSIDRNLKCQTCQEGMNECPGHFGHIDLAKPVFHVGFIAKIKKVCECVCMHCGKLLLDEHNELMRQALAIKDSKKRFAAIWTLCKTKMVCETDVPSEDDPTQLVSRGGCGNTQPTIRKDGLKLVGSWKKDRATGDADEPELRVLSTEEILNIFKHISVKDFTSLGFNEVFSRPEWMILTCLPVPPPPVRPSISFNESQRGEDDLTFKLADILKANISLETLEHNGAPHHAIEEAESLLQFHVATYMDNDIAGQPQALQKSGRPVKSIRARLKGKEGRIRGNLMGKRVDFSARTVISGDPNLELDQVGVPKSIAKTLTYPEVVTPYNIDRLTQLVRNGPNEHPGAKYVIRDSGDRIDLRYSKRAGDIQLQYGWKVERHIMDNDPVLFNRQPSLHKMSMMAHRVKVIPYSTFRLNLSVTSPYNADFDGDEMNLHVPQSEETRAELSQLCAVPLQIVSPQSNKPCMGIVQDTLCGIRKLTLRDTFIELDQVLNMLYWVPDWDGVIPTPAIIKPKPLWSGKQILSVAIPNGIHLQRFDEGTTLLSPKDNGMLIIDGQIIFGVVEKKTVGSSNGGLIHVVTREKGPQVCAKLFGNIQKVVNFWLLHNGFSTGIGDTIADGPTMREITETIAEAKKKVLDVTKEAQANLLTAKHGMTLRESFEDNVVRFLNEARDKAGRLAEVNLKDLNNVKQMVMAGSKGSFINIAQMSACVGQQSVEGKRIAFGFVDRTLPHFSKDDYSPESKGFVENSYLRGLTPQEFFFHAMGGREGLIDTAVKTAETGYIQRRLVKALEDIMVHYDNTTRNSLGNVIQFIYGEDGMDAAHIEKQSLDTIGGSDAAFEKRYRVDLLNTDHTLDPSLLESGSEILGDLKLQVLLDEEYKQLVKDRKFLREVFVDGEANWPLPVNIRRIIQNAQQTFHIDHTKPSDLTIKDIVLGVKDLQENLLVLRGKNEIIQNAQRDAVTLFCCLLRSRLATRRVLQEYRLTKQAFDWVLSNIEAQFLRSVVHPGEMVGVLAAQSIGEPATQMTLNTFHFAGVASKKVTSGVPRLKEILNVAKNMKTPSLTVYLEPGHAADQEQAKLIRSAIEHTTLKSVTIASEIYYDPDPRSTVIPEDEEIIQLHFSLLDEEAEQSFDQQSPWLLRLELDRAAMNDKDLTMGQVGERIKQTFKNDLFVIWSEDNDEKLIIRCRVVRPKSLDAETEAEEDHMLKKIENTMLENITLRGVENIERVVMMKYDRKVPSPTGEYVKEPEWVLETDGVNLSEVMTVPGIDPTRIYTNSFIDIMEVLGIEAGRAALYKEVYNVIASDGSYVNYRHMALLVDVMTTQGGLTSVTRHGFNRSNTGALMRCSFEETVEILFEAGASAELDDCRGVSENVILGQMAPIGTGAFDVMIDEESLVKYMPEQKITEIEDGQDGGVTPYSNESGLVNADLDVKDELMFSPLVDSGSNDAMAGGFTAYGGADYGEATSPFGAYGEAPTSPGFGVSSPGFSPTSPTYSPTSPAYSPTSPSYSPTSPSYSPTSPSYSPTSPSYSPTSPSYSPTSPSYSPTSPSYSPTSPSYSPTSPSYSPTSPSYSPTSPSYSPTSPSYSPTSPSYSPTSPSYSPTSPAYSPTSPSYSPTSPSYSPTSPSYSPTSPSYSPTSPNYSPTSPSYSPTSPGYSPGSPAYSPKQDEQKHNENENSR

- 1/k-5 (average time to dissociate from elongation complexes): 56 s
- frequency of association with a DNA containing Rpb1^SNAP549, with added NTPs: 0.0094 s⁻¹
- kapp = k-5 + k6 (aggregate dissociation rate constant, pooled events): 0.021 s⁻¹
- kapp,prior (only events in which Spt4/5 left before RNApII): 0.021 s⁻¹
- kapp,simul (only events in which Spt4/5 and RNApII left simultaneously): 0.018 s⁻¹
B1: elongation factor Spt4/5 with DHFR-tagged Spt5 labelled with Cy5-TMP (Spt5^DHFR-Cy5) (complex)
chain 1: MSDNSDTNVSMQDHDQQFADPVVVPQSTDTKDENTSDKDTVDSGNVTTTESTERAESTSNIPPLDGEEKEAKSEPQQPEDNAETAATEQVSSSNGPATDDAQATLNTDSSEANEIVKKEEGSDERKRPREEDTKNSDGDTKDEGDNKDEDDDEDDDDDDDDEDDDDEAPTKRRRQERNRFLDIEAEVSDDEDEDEDEEDSELVREGFITHGDDEDDEASAPGARRDDRLHRQLDQDLNKTSEEDAQRLAKELRERYGRSSSKQYRAAAQDGYVPQRFLLPSVDTATIWGVRCRPGKEKELIRKLLKKKFNLDRAMGKKKLKILSIFQRDNYTGRIYIEAPKQSVIEKFCNGVPDIYISQKLLIPVQELPLLLKPNKSDDVALEEGSYVRIKRGIYKGDLAMVDQISENNLEVMLKIVPRLDYGKFDEIDPTTQQRKSRRPTFAHRAPPQLFNPTMALRLDQANLYKRDDRHFTYKNEDYIDGYLYKSFRIQHVETKNIQPTVEELARFGSKEGAVDLTSVSQSIKKAQAAKVTFQPGDRIEVLNGEQRGSKGIVTRTTKDIATIKLNGFTTPLEFPISTLRKIFEPGDHVTVINGEHQGDAGLVLMVEQGQVTFMSTQTSREVTITANNLSKSIDTTATSSEYALHDIVELSAKNVACIIQAGHDIFKVIDETGKVSTITKGSILSKINTARARVSSVDANGNEIKIGDTIVEKVGSRREGQVLYIQTQQIFVVSKKIVENAGVFVVNPSNVEAVASKDNMLSNKMDLSKMNPEIISKMGPPSSKTFQQPIQSRGGREVALGKTVRIRSAGYKGQLGIVKDVNGDKATVELHSKNKHITIDKHKLTYYNREGGEGITYDELVNRRGRVPQARMGPSYVSAPRNMATGGIAAGAAATSSGLSGGMTPGWSSFDGGKTPAVNAHGGSGGGGVSSWGGASTWGGQGNGGASAWGGAGGGASAWGGQGTGATSTWGGASAWGNKSSWGGASTWASGGESNGAMSTWGGTGDRSAYGGASTWGGNNNNKSTRDGGASAWGNQDDGNRSAWNNQGNKSNYGGNSTWGGH
chain 2: MSSERACMLCGIVQTTNEFNRDGCPNCQGIFEEAGVSTMECTSPSFEGLVGMCKPTKSWVAKWLSVDHSIAGMYAIKVDGRLPAEVVELLPHYKPRDGSQVE
modifications: Cy5-trimethoprim (Cy5-TMP) bound non-covalently to the DHFR tag
